US20120276119A1 (IMMUNOGEN, published 2012)

Key:
Human CD37 [1] = molecular target: T1, Human CD37 (human, UniProt P11049 1-278); experiment: cell-based or functional assay
T1 sequence: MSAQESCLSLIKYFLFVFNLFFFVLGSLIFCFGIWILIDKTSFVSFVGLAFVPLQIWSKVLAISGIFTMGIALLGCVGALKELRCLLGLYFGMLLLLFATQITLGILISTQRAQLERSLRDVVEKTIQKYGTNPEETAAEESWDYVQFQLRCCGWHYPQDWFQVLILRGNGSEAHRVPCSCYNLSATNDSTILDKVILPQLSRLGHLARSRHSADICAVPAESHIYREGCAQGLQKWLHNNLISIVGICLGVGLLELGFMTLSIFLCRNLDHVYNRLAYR

Human CD37 [2] = molecular target: T1, Human CD37; experiment: flow cytometry on human tumor cells expressing human CD37
Murine CD37 = molecular target: T2, Murine CD37 (murine, UniProt Q61470 1-281); experiment: flow cytometry titration on 300-19 murine pre-B cells expressing muCD37; anti-muIgG-PE detection; EC50 of the curve taken as the apparent Kd
T2 construct: Endogenous muCD37 on 300-19 murine pre-B cells and on wild type mouse spleen B cells; also called muCD37
T2 sequence: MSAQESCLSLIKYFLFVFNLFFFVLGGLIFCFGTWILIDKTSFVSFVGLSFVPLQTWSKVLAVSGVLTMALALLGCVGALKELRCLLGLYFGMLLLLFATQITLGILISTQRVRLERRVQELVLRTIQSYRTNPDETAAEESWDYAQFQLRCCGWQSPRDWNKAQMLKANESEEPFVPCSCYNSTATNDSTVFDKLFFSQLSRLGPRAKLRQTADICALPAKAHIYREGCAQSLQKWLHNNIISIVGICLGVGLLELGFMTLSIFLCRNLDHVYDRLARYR
Method: Cells were then washed and counterstained with anti muIgG-PE conjugate (Jackson Immunoresearch, West Grove, Pa.) for 30 minutes at 4° C. The cells were finally washed, fixed in formalin and analyzed by flow cytometry using a FACSarray (BD Bioscience, San Jose, Calif.). The flow cytometry data were analyzed using FlowJo (Tree Star Inc., Ashland, Oreg.) and the geometric mean fluorescence intensity was plotted against the antibody concentration in a semi-log plot (FIG. 8). A dose-response curve was generated by non-linear regression and the EC50 value of the curve, which corresponds to the apparent dissociation constant (Kd) of the antibody, was calculated using GraphPad Prism (GraphPad Software Inc., La Jolla, Calif.).

B1: huCD37-50 (antibody, human IgG1, kappa, V domains shown)
VH: QVQLQESGPGLLKPSQSLSLTCTVSGYSITSGFAWHWIRQHPGNKLEWMGYILYSGSTVYSPSLKSRISITRDTSKNHFFLQLNSVTAADTATYYCARGYYGYGAWFAYWGQGTLVTVSA
VL: EIVLTQSPATMSASPGERVTMTCSATSSVTYMHWYQQKPGQSPKRWIYDTSNLPYGVPARFSGSGSGTSYSLTISSMEAEDAATYYCQQWSDNPPTFGQGTKLEIKR
Human CD37 [1]
  in vitro depletion of B-cells, whole human blood, 10 µg/mL, one donor: ~40%

B2: huCD37-50-SMCC-DM1 (antibody, human IgG1, kappa, V domains shown)
VH: QVQLQESGPGLLKPSQSLSLTCTVSGYSITSGFAWHWIRQHPGNKLEWMGYILYSGSTVYSPSLKSRISITRDTSKNHFFLQLNSVTAADTATYYCARGYYGYGAWFAYWGQGTLVTVSA
VL: EIVLTQSPATMSASPGERVTMTCSATSSVTYMHWYQQKPGQSPKRWIYDTSNLPYGVPARFSGSGSGTSYSLTISSMEAEDAATYYCQQWSDNPPTFGQGTKLEIKR
modifications: DM1 maytansinoid linked via SMCC; sites, chain and drug load in the assay not stated
Human CD37 [1]
  in vitro depletion of B-cells, whole human blood, 10 µg/mL, one donor: ~40%

B3: huCD37-3 (antibody, V domains shown)
VH: QVQVQESGPGLVAPSQTLSITCTVSGFSLTTSGVSWVRQPPGKGLEWLGVIWGDGSTNYHPSLKSRLSIKKDHSKSQVFLKLNSLTAADTATYYCAKGGYSLAHWGQGTLVTVSS
VL: DIQMTQSPSSLSVSVGERVTITCRASENIRSNLAWYQQKPGKSPKLLVNVATNLADGVPSRFSGSGSGTDYSLKINSLQPEDFGTYYCQHYWGTTWTFGQGTKLEIKR
Human CD37 [1]
  in vitro depletion of B-cells, whole human blood, 10 µg/mL, one donor: ~40%

B4: huCD37-3-SMCC-DM1 (antibody, V domains shown)
VH: QVQVQESGPGLVAPSQTLSITCTVSGFSLTTSGVSWVRQPPGKGLEWLGVIWGDGSTNYHPSLKSRLSIKKDHSKSQVFLKLNSLTAADTATYYCAKGGYSLAHWGQGTLVTVSS
VL: DIQMTQSPSSLSVSVGERVTITCRASENIRSNLAWYQQKPGKSPKLLVNVATNLADGVPSRFSGSGSGTDYSLKINSLQPEDFGTYYCQHYWGTTWTFGQGTKLEIKR
modifications: DM1 maytansinoid linked via SMCC; sites, chain and drug load in the assay not stated
Human CD37 [1]
  EC50 of in vitro B-cell depletion, purified human PBMCs, two donors: 0.04 to 0.075 µg/mL
  in vitro depletion of B-cells, whole human blood, 10 µg/mL, one donor: ~40%

B5: anti-muCD37 monoclonal antibody clone 252-3 (antibody, mouse IgG2a, V domains shown)
VH: EVQVVESGGDLVKPGGSLKLSCAASGFTFSSYGMSWVRQTPDKRLEWVATISSGGSYTYSPDSVKGRFTISRDNAKKTLYLQMSSLKSEDTAMYYCARHSYYDTSVDYWGQGTSVTVSS
VL: DIQMTQTTSSLSASLGDRVTISCRASQDISNYLNWYQQKPDGTVKLLIYYTSKLHSGVPSRFSGSGSGTDYSLTISNLEQEDIATYFCQQGNALPWTFGGGTKLELKR
Human CD37 [2]
  binding result: no binding
Murine CD37
  Kd: 14 nM
